Values belong to the binder of their own block, whether it stands above or below them.
Tests used:
[1] = molecular target: T1, Activin A (homodimer of two inhibin βA subunits; R&D Systems, #338-AC) (human, UniProt P08476 311-426); assay: SPR blocking: 5 nM Activin A + 3.75 nM binder over Follistatin-288 surface
T1 construct: Bought protein; also called inhibin-βA dimer
T1 sequence: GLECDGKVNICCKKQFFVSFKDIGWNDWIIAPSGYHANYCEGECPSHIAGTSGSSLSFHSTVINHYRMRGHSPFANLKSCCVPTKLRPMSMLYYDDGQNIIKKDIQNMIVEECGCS
Description: (§1) The binding signal (RU) was measured at 150 seconds after the start of the injection, and this signal was subtracted by the measured RU value for a negative control reference surface to determine the specific binding signal.

[2] = molecular target: T1, Activin A (homodimer of two inhibin βA …); assay: SPR blocking: 5 nM Activin A + 7.50 nM binder over hActRIIB-hFc (Control 4) surface
[3] = molecular target: T1, Activin A (homodimer of two inhibin βA …); assay: SPR blocking: 5 nM Activin A + 3.75 nM binder over hActRIIB-hFc (Control 4) surface
Description: as §1

[4] = molecular target: T1, Activin A (homodimer of two inhibin βA …); assay: SPR blocking: 5 nM Activin A + 30 nM binder over hActRIIB-hFc (Control 4) surface
Description: as §1

[5] = molecular target: T1, Activin A (homodimer of two inhibin βA …); assay: SPR blocking: 5 nM Activin A + 15 nM binder over Follistatin-288 surface
Description: as §1

[6] = molecular target: T1, Activin A (homodimer of two inhibin βA …); assay: SPR blocking: 5 nM Activin A + 0.00 nM binder over hActRIIB-hFc (Control 4) surface
Description: as §1

[7] = molecular target: T1, Activin A (homodimer of two inhibin βA …); assay: SPR blocking: 5 nM Activin A + 0.94 nM binder over Follistatin-288 surface
Description: as §1

[8] = molecular target: T1, Activin A (homodimer of two inhibin βA …); assay: SPR blocking: 5 nM Activin A + 0.94 nM binder over hActRIIB-hFc (Control 4) surface
[9] = molecular target: T1, Activin A (homodimer of two inhibin βA …); assay: SPR blocking: 5 nM Activin A + 0.00 nM binder over hActRIIA-hFc surface
Description: as §1

[10] = molecular target: T1, Activin A (homodimer of two inhibin βA …); assay: SPR blocking: 5 nM Activin A + 0 nM binder over Follistatin-288 surface
Description: as §1

BMP10 = molecular target: T2, BMP10 (human, UniProt O95393 317-424); assay: cell-based or functional assay
T2 sequence (looked up): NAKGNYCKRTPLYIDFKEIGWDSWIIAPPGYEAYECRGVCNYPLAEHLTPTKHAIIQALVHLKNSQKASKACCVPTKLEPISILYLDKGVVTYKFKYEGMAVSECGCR

[11] = molecular target: T1, Activin A (homodimer of two inhibin βA …); assay: SPR blocking: 5 nM Activin A + 30 nM binder over Follistatin-288 surface
Description: as §1

[12] = molecular target: T1, Activin A (homodimer of two inhibin βA …); assay: SPR blocking: 5 nM Activin A + 1.88 nM binder over hActRIIA-hFc surface
Description: as §1

[13] = molecular target: T1, Activin A (homodimer of two inhibin βA …); assay: SPR blocking: 5 nM Activin A + 60 nM binder over hActRIIA-hFc surface
Description: as §1

[14] = molecular target: T1, Activin A (homodimer of two inhibin βA …); assay: SPR blocking: 5 nM Activin A + 15 nM binder over hActRIIA-hFc surface
Description: as §1

[15] = molecular target: T1, Activin A (homodimer of two inhibin βA …); assay: SPR blocking: 5 nM Activin A + 7.50 nM binder over hActRIIA-hFc surface
Description: as §1

[16] = molecular target: T1, Activin A (homodimer of two inhibin βA …); assay: SPR blocking: 5 nM Activin A + 1.88 nM binder over hActRIIB-hFc (Control 4) surface
Description: as §1

[17] = molecular target: T1, Activin A (homodimer of two inhibin βA …); assay: SPR blocking: 5 nM Activin A + 0.94 nM binder over hActRIIA-hFc surface
Description: as §1

[18] = molecular target: T1, Activin A (homodimer of two inhibin βA …); assay: SPR blocking: 5 nM Activin A + 60 nM binder over Follistatin-288 surface
Description: as §1

[19] = molecular target: T1, Activin A (homodimer of two inhibin βA …); assay: SPR blocking: 5 nM Activin A + 15 nM binder over hActRIIB-hFc (Control 4) surface
[20] = molecular target: T1, Activin A (homodimer of two inhibin βA …); assay: SPR blocking: 5 nM Activin A + 7.5 nM binder over Follistatin-288 surface
Description: as §1

[21] = molecular target: T1, Activin A (homodimer of two inhibin βA …); assay: SPR blocking: 5 nM Activin A + 60 nM binder over hActRIIB-hFc (Control 4) surface
Description: as §1

[22] = molecular target: T1, Activin A (homodimer of two inhibin βA …); assay: SPR blocking: 5 nM Activin A + 1.88 nM binder over Follistatin-288 surface
Description: as §1

[23] = molecular target: T1, Activin A (homodimer of two inhibin βA …); assay: SPR blocking: 5 nM Activin A + 3.75 nM binder over hActRIIA-hFc surface
Description: as §1

[24] = molecular target: T1, Activin A (homodimer of two inhibin βA …); assay: SPR blocking: 5 nM Activin A + 30 nM binder over hActRIIA-hFc surface
Description: as §1

BMP9 = molecular target: T3, BMP9 (human, UniProt Q9UK05 320-429); assay: cell-based or functional assay
T3 sequence (looked up): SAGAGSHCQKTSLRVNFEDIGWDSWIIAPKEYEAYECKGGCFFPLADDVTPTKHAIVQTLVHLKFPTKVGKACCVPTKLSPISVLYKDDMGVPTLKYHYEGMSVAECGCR

% bound RU w/no inhibitor [1]: 16% | % bound RU w/no inhibitor [2]: 3% | % bound RU w/no inhibitor [3]: 19% | % bound RU w/no inhibitor [4]: 3% | % bound RU w/no inhibitor [5]: 1% | % bound RU w/no inhibitor [6]: 100% | % bound RU w/no inhibitor [7]: 78% | % bound RU w/no inhibitor [8]: 80% | % bound RU w/no inhibitor [9]: 100% | % bound RU w/no inhibitor [10]: 100% | IC50 [M]; inhibition of 4 nM BMP10 in W-20-17/BRE-luc cells (BMP10): > 1e-07 M | % bound RU w/no inhibitor [11]: 2% | % bound RU w/no inhibitor [12]: 55% | % bound RU w/no inhibitor [13]: 2% | % bound RU w/no inhibitor [14]: 2% | % bound RU w/no inhibitor [15]: 2% | % bound RU w/no inhibitor [16]: 60% | % bound RU w/no inhibitor [17]: 75% | % bound RU w/no inhibitor [18]: 2% | % bound RU w/no inhibitor [19]: 2% | % bound RU w/no inhibitor [20]: 1% | % bound RU w/no inhibitor [21]: 4% | % bound RU w/no inhibitor [22]: 61% | % bound RU w/no inhibitor [23]: 16% | % bound RU w/no inhibitor [24]: 2%
B1: H4H10436P2 (antibody, human IgG4, V domains shown)
VH: QVQLVESGGGVVQPGRSLRLTCVASGFTVSSYGMHWVRQAPGKGLEWVAVMFYDESKKYYADSVKGRFTISRDNSKNTLYLQMNSLRVEDTAVYYCARDEQLDFEYWGQGTLVTVSS
VL: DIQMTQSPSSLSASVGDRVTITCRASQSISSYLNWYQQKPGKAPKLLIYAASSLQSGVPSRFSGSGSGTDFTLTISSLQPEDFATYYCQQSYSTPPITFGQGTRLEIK
notes: H4H prefix means human IgG4 Fc

% bound RU w/no inhibitor [1]: 20% | % bound RU w/no inhibitor [2]: 2% | % bound RU w/no inhibitor [3]: 19% | % bound RU w/no inhibitor [4]: 2% | % bound RU w/no inhibitor [5]: 1% | % bound RU w/no inhibitor [6]: 100% | % bound RU w/no inhibitor [7]: 97% | % bound RU w/no inhibitor [8]: 87% | % bound RU w/no inhibitor [9]: 100% | % bound RU w/no inhibitor [10]: 100% | IC50 [M]; inhibition of 4 nM BMP10 in W-20-17/BRE-luc cells (BMP10): 3.5e-09 M | IC50 [M]; inhibition of 800 pM BMP9 in W-20-17/BRE-luc cells (BMP9): 8.1e-09 M | % bound RU w/no inhibitor [11]: 2% | % bound RU w/no inhibitor [12]: 66% | % bound RU w/no inhibitor [13]: 1% | % bound RU w/no inhibitor [14]: 1% | % bound RU w/no inhibitor [15]: 1% | % bound RU w/no inhibitor [16]: 67% | % bound RU w/no inhibitor [17]: 87% | % bound RU w/no inhibitor [18]: 3% | % bound RU w/no inhibitor [19]: 2% | % bound RU w/no inhibitor [20]: 1% | % bound RU w/no inhibitor [21]: 3% | % bound RU w/no inhibitor [22]: 80% | % bound RU w/no inhibitor [23]: 19% | % bound RU w/no inhibitor [24]: 1%
B2: H4H10429P (antibody, human IgG4, V domains shown)
VH: QVQLVESGGGVVQPGRSLRLSCVASGFTVSSYGIHWVRQAPGKGLEWVSVIWYDGRNKDYADSVKGRFTISRDNSKNTVYLEMKGLRAEDTALYYCARDKTGDFDSWGQGTLVTVSS
VL: DIQMTQSPSSLSASVGDRVTITCRASQNINSFLSWYQQKPGKAPKFLIYDASSIQSGAPSRFSGSGSGTDFTLTISSLQPEDFATYYCQQSYSSPFTFGQGTKLEIK
notes: as for B1
